Test results published in patent US10494439 (dated 2019).

What was measured:
[1] = molecular target: Y436T; test: SPR
[2] = molecular target: GLD52; test: SPR

B1: CD52 peptide 741 (peptide)
peptide: GQNDTSQTSSPS
Q: Which results are given for B1?
A: Kd [1]: 1.95 nM; Kd [2]: 2.44 nM
